Assay results published in patent publication US20250250357A1 (NANJING ZAIMING PHARMACEUTICAL, published 2025).

T1: monkey MSLN full-length protein (NCBI: XP_028696439.1) expressed on HEK293T-monkey MSLN cells (monkey)
T1 construct: Whole encoded precursor
T1 chain: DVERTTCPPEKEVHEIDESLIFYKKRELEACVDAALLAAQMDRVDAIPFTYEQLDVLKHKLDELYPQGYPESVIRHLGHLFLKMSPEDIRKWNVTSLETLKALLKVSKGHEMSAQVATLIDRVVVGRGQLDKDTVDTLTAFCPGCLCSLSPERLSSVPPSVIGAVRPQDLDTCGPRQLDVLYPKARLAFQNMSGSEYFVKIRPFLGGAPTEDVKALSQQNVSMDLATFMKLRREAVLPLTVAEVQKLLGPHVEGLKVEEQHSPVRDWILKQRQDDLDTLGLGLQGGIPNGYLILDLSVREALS


How the values were obtained:
[1] = molecular target: T1, monkey MSLN full-length protein (NCBI: …); assay: FACS on HEK293T-monkey MSLN cells;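 further: flow cytometry binding of chimeric antibodies to the cells, with a 2 h incubation on ice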
Description: (§1) The desired cells were expanded to the logarithmic growth phase in a T-75 cell culture flask. […] After the cells from the previous step were subjected to cell counting, the cell pellet was resuspended to 2×10⁶ cells/mL in a blocking buffer of [PBS+2% (w/w) BSA] and added into a 96-well FACS reaction plate at 50 μL/well. A chimeric antibody (a sample to be tested) was added at 50 μL/well, and the plate was incubated on ice for 2 h. […] After the plate was centrifuged and washed 5 times with a PBST buffer, assay and analysis were performed by FACS (FACS CantoII, purchased from BD). Data analysis was performed by software (Flowjo) to obtain the mean fluorescence intensity (MFI) of the cells.

[2] = molecular target: T2, human MSLN-R3 protein (Met487-Ser606 of NCBI AAH09272.1) expressed on HEK293T-hMSLN-R3 cells (human, UniProt Q13421 487-606); assay: FACS on HEK293T-hMSLN-R3 cells;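 further: flow cytometry binding of test chimeric antibodies to cells after 2 h incubation on ice, with values derived from the mean fluorescence intensity of the cells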
T2 construct: also called Region3
T2 sequence (Q13421 495-614): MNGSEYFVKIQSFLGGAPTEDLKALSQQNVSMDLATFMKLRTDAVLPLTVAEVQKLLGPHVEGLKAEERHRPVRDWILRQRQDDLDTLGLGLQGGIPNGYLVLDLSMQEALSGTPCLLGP
Description: as §1

[3] = molecular target: T3, human MSLN protein endogenously expressed on OVCAR3 tumor cells (human, UniProt Q13421 296-598); assay: FACS on OVCAR3 cells;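 further: flow cytometry binding of test antibodies to cells, 2 h incubation on ice, readout as cell mean fluorescence intensity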
T3 construct: whole, on cells; Endogenous target on OVCAR3 cells; kept apart from the recombinant full-length construct; also called mesothelin
T3 sequence (Q13421 other isoform, or with tags, fused parts or gaps): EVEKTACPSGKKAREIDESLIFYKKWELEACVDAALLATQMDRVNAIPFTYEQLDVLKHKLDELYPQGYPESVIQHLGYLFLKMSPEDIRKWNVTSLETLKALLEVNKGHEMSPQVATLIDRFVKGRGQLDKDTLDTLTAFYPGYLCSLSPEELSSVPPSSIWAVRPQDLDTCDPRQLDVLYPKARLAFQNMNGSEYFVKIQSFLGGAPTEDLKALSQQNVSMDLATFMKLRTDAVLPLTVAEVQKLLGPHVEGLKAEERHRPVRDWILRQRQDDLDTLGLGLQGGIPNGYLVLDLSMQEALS
Description: as §1

Binder	EC50 [1] [nM]	Maximum mean fluorescence intensity [1]	EC50 [2] [nM]	Maximum mean fluorescence intensity [2]	EC50 [3] [nM]	Maximum mean fluorescence intensity [3]	binding result [1]	binding result [2]
S009-F7.11.11 (antibody, human IgG1, kappa, V domains shown, human-murine chimeric antibody, human IgG1/kappa constant regions) VH: EVQLQQSGPELVKPGASVKIPCKASGYTITDYNMDWVKQSRGKSLEWIGDVFPYNGDSIYNQKFEGRATLTVDKYSSTAYMELRGLTSEDTAVYFCARRKTGTGYFDVWGTGTTVTVSS VL: QLVLTQSPAIMSASPGEKVTLTCSASSSVSSTYLSWYLQKPGSSPKLWIYSTSNLASGVPARFSGSGSGTSYSLTISSMEAEDAASYFCHQWSSYPYTFGGGTKLEIKR	0.41	49500	0.28	6260	0.86	31800	–	–
S009-F7.12.13 (antibody, human IgG1, kappa, V domains shown, human-murine chimeric antibody, human IgG1/kappa constant regions) VH: EVQLQQSGPELVKPGASVKIPCKASGYTFTDYNMDWVKQSHGKGLEWIGDINPNTDDTIYNQKFNGKATLTVDKSSSTAYMELRSLTSEDTAVYYCSRRLIGTGYFDVWGTGTTVTVSS VL: QIVLTQSPAIMSASPGEKVTLTCSASSSVISTYLCWYRQKPGSSPELWIYSTSNLASGVPARFSGSGSGTSYSLTISSMEAEDAASYFCHQWSNYPYTFGGGTKLGMKR	6.34	7630	0.12	6610	0.32	21400	–	–
S009-F7.26.15 (antibody, human IgG1, kappa, V domains shown, human-murine chimeric antibody, human IgG1/kappa constant regions) VH: DVQLQESGPGLVKPSQTVFLTCTVTGISITTGNYRWSWIRQFPGNKLEWIGYIYYTGFITYNPSLTSRTTITRDTPKNQFFLEMKSLTAEDTATYYCARDDYDYDVFAYWGQGTLVTVSA VL: DIQMTQSPASLSASVGETVTITCRASGNIHNYLAWYHQKQGKSPQFLVYKAKTLADGVPSRFSGSGSGTQYSLKINRLQPEDFGSYYCQHFLSIPLTFGAGTKLELKR	–	108	0.09	6940	0.2	16200	no binding	–
S009-F7.18.10 (antibody, human IgG1, kappa, V domains shown, human-murine chimeric antibody, human IgG1/kappa constant regions) VH: QVQLQQSGAELVRPGTSVKVSCKASGYAFTNYLIEWVKQRPGQGLEWIGVINPGSGGTKYNEKFKGKATLTADKSSSTAYMQLSSLTSEDSAVYFCASDYDYDPFAYWGQGTLVTVSA VL: DIVMTQSHKFMSTSVGDRVSITCKASQDVSTAVAWYQRKPGQSPKLLIYWASTRHTGVPDRFTGSGSGTDYTLTISYMQAEDLALYYCQQHYSTPYTFGGGTKLEIKR	0.47	50600	–	39	3.29	29900	–	no binding
S009-F7.21.16 (antibody, human IgG1, kappa, V domains shown, human-murine chimeric antibody, human IgG1/kappa constant regions) VH: QVQLQQPGTELVKPGASVKLSCKASGYTFTTFWMHWVKQRPGQGLEWIGGVNPTNGGTNYNEKFRTKATLTVDKSSTTADMQLSSLTSEDSAVYYCAPHYISSRPGFAYWGQGTLVTVSG VL: DIVMTQSQKFMSTSGGDRVSVTCKASQNVGTNVAWYQQKPGQSPKALIYSASYRYSGVPDRFTGSGSGTDFILTISNVQSEDLAEYFCQQYNSYPLTFGGGTKLEIKR	0.3	50900	0.16	6820	0.52	32600	–	–
S009-F7.25.19 (antibody, human IgG1, kappa, V domains shown, human-murine chimeric antibody, human IgG1/kappa constant regions) VH: QVQLQQPGTELVKPGASVKLSCKASGYTFTSYWMHWVKQRPGQGLEWIGNIIPSNGGTKYNEKFKSKATLTVDKSSSTAYMQLSSLTSEDSAVYYCSPHYYGGSPGFAYWGQGTLITVSA VL: DIVMTQSQKFMSTSVGDRVSVICKASQNVGTNVAWYQQKPGQSPKALIYSASYRYSGVPDRFTGSGSGTDFTLTISNVQSEDLAEYFCQQYNSYPLTFGGGTKLEIKR	~0.16	43200	0.06	5350	0.18	24200	–	–
S009-F7.23.19 (antibody, human IgG1, kappa, V domains shown, human-murine chimeric antibody, human IgG1/kappa constant regions) VH: EVKLVESGGGLVQPGGSLSLSCAASGFTFTDYYMSWVRQPPGKALEWLGFIRSKANAYTTEYSASVKGRFTISRDNSQSILYLQMNDLRAEDSATYYCARYYYYGSGYVWYFDVWGTGTTVTVSS VL: DIVMTQSQKFMSTSVGDRVSVTCKASQSVGTNVAWYQQKPGQFPKALIYSASYRYSGVPDRFTGSGSGTDFTLTIINVQSEDLAEYFCQQYNSYPLTFGAGTKLELKR	0.13	54300	0.05	6570	0.15	29300	–	–

Results, then the binder that gave them:

EC50 [1] [nM]	Maximum mean fluorescence intensity [1]	EC50 [2] [nM]	Maximum mean fluorescence intensity [2]	EC50 [3] [nM]	Maximum mean fluorescence intensity [3]	binding result [1]	binding result [2]	Binder
1.13	47400	1.3	6480	1.09	23600	–	–	S009-F7.53.2 (antibody, human IgG1, kappa, V domains shown, human-murine chimeric antibody, human IgG1/kappa constant regions) VH: EVQLQQSGPELVKPGASVKIPCKTSGYTFTDYNMDWVKQSHGKSLEWIGDINPNTDGAIYNQKFQNKATLTVDKSSSTAYMELRSLTSEDTAVYYCTRRKLGRKFFDYWGQGTTLTVSS VL: QIVLTQSPAIMSASPGEQVTMTCSASSSVGYMNWYQQKPGSSPRLLIYDTSNLASGVPVHFSGSGSGTSYSLTISRMEAAFAATYYCQQWYVYPYTFGGGTKLEIKR
0.04	45600	0.04	7470	0.05	25700	–	–	S009-F7.44.20 (antibody, human IgG1, kappa, V domains shown, human-murine chimeric antibody, human IgG1/kappa constant regions) VH: EVQLQQSGPELVKPGASVKIPCKASGYTFTDYNMDWVKQSHGKSLEWIGDINPSTGGTIYNQKFNGKATLTEDKSASTVYMEFRSLTSDDTAVYYCARRRIGTGYFDVWGTGTTVTVSS VL: QIVLTQSPALMSASPGEKVTLTCSASSSVISSYLSWYQQKPGSSPKLLIYRTSNLASGVPARFSGSGSGTSYSLTISSMEAEDAASYFCHQWSSFPYTFGGGTKLEIKR
0.75	39800	0.48	6250	1.08	23700	–	–	S009-F7.61.21 (antibody, human IgG1, kappa, V domains shown, human-murine chimeric antibody, human IgG1/kappa constant regions) VH: DVQLQQSGPELVEPGASVRIPCKAAGHTFTDYNVDWVKQSHGQSLEWIGDVNPNTDGAIYNQKFEGKATLTVDTSSSTAYMELRSLTSEDTAVYFCARRRLGQGGFDSWGQGTTLTVSS VL: QVVLTQSPAIMSASPGEKVTLTCGASSSLISKYLYWYQQKPGSSPKLWIYSTSNLASGVPARFSGSGSGTSYSLTISSMEAEDAASYFCHQWSSYPYTFGGGTKVEIKR
0.54	64200	0.35	7460	0.22	25900	–	–	S009-F7.41.18 (antibody, human IgG1, kappa, V domains shown, human-murine chimeric antibody, human IgG1/kappa constant regions) VH: QVQLQQPGTELVKPGASVKLSCKASDYTFTSYWMHWVKQRPGQGLEWIGSINPSNGDTYYNEKFKNKATLTVDKSSSTAYMQLSSLTSDDSAVYYCARGWYFDVWGTGTTVTVSS VL: not shown
0.87	50200	0.91	6490	0.87	26500	–	–	S009-F7.65.13 (antibody, human IgG1, kappa, V domains shown, human-murine chimeric antibody, human IgG1/kappa constant regions) VH: EVQLQQSGPELVKPGTSVKILCKASGDTFTAYNMDWVKQRHGQSLEWIGDINPNTDSTIYNQKFEGKAILTVDKSSSTAYMELRSLTSEDTAVYYCARRKLGRGYFDYWGQGTTLTVSS VL: QIVLTQSPAIMSASPGEKVTMTCSVNLSVRYIYWYQQKPGSSPRLLIHDTSNLASGVPVRFSGSGSGTSYSLTISRMEAEDAATYYCQQWSSFPYTFGGGTKLEIKR
2.88	43200	1.87	5150	~4	24000	–	–	S009-F7.48.1 (antibody, human IgG1, kappa, V domains shown, human-murine chimeric antibody, human IgG1/kappa constant regions) VH: QVQLQQPGTELVKPGASVKLSCKASGYTFTSYWMHWVKQRPGQGLEWIGNINPSNGGTNNNENFKSKATLTVDTSSSTAYMQLSSLTSEDSAVYYCVRNGYHGYWYFDVWGTGTTVTVSS VL: DIVMTQSQKFMSTSVGDRVSVTCKASQNVGTNVAWYQQQPGQSPKALIYSASYRYSGVPDRFTGSVSGTDFTLTISNVQSEDLAEYFCQQYNSYPLTFGGGTKLEIKR
0.13	47300	0.06	6480	0.15	31200	–	–	S009-F7.33.24 (antibody, human IgG1, kappa, V domains shown, human-murine chimeric antibody, human IgG1/kappa constant regions) VH: QVQLQQPGTELVKPGASVKLSCKASGYTFTSYWMHWVKQRPGQGLEWIGNVNPSNGGSNYNEKFKNKATLTVDKSSSTADMQLNSLTSEDSAVYYCAPHYIGSRPGFAYWGQGTLVTVSG VL: DIVMTQSQKFMSTSVGDRVSVTCKASQNVGTNIAWYQQKPGQSPKALIYSASYRYSGVPDRFTGSGSGTDFTLTITNVQSEDLAEYFCQQYNSYPLTFGGGTKVEIKR
0.34	47400	0.24	6160	0.66	31800	–	–	S009-F7.30.5 (antibody, human IgG1, kappa, V domains shown, human-murine chimeric antibody, human IgG1/kappa constant regions) VH: QVQLQQPKTELVKPGASVKLSCKASGYIFTTYWMHWVKQRPGQGLEWIGNVNPSNGGTMYNEKFERRATLTVDKSSSTADMQLSSLTSEDSAVYYCVPHYIGSRPGFAYWGQGTLVTVSG VL: DIVMTQSQKFMSTSVGDRVSVTCKASQNVGTNVAWYQHKPGQSPKALLYSASYRYSGVPDRFTGSGSGTDFTLTITNVQSEDLAEYFCQQYNSYPLTFGGGTKLEIKR
